From the DeepSol protein solubility set

test: soluble on expression in E. coli; label from the status in PepcDB or PDB records

Sequence | soluble on expression in E. coli
SLSKKATYPKVMCTQHPDSASKYISTQEEPGEAIEAAVVFGCDEYMPDYEGKATPYHQNVQIVSRFIEETDLIPGKDIFITPRAPSAAQENRFRQLMVMMSIAEANHGALEYSDVQAINEFVHPMTGTVGEILDAQQHMVDVGELAKKEFGVAMEVPRIIPLIEDAPALLHAKELAENTLLSWEKRFGAAPEKFRVFLGKSDSALSFGHVASTLSCKYAISGISELDLELDTSTGIIFGAGTLPFRGHLSLKNAENFFREYRGIGTITLQSAVRYSHDKGEAEALVRLAEERLPESPEIYSGEEKEEIVNLIGIFGARYNRIIREMSCTINQLAGLLPQQRDRLMHKGTGGYSRNVPDISGLVCLCRKDVGKELSASMPAEDLNLPRAIKFTGALYSIGLPPEFIGTGTALEEAREKLGEEACERLLKKYFPSLASDLSFASGYLDLNVASRFLPEACLKEIRKDIEVLRDTFSLKVQPEPSYRILLEMMQPDLLQAGTKGNCMDEEVSQLVCSTLTKMGKIRKALG | not soluble
SLSSLDAVLSQDLIVADGPAVEVGDSLEVAYTGWLFQNHVLGQVFDSTANKDKLLRLKLGSGKVIKGWEDGMLGMKKGGKRLLIVPPACAVGSEGVIGWTQATDSILVFEVEVRRVKFAR | soluble
SLTTSTALVLDINNANLDQQQAFAITAANRDEILQAASSIRLGDVMSVHDFGRSATDASYLDTMLEDVKVIDQKESGKQLNEIAFLSRQISDSVQPSDLQRVISRIPIIGFVISRLTFMQRRALNRFDSVKGQMDILADGISSISTGYLEQNVKLDAMYNDVLADIRAQGINIVASKLVIDSIEGELQTRQEEFKKNKTNTLLSIEINDIQYQLDTLKKRRKDMISMQQKSFDDLTMLRMMQQNNLALVDKFRSVEELTLPAAKRGHLIVDALEKQNAGVKLIEAIDDATNALALRQAELVKDNTIRIAKQSHRSVYDAKTLDRISTLMNEAIAEAHAIHKSNSDGHLALEKRAIEWQEERRQRLINGMGKNKLSNH | not soluble
SLTTTEVVMENVTAFWEEGFGELFEKAKQNNNNRKTSNGDDSLFFSNFSLLGTPVLKDINFKIERGQLLAVAGSTGAGKTSLLMMIMGELEPSEGKIKHSGRISFCSQFSWIMPGTIKENIIFGVSYDEYRYRSVIKACQLEEDISKFAEKDNIVLGEGGITLSGGQRARISLARAVYKDADLYLLDSPFGYLDVLTEKEIFESCVCKLMANKTRILVTSKMEHLKKADKILILHEGSSYFYGTFLELYHYPADRFVAGFIGSPKMNFLPVKVTATAIDQVQVELPMPNRQQVWLPVESRDVQVGANMSLGIRPEHLLPSDIADVILEGEVQVVEQLGNETQIHIQIPSIRQNLVYRQNDVVLVEEGATFAIGLPPEDCHLFREDGTACRRLHKEPGV | soluble
SLTTTEVVMENVTAFWEEGGTPVLKDINFKIERGQLLAVAGSTGAGKTSLLMMIMGELEPSEGKIKHSGRISFCSQFSWIMPGTIKENIIFGVSYDEYRYRSVIKACQLEEDISKFAEKDNIVLGEGGITLSGGQRARISLARAVYKDADLYLLDSPFGYLDVLTEKEIFESCVCKLMANKTRILVTSKMEHLKKADKILILHEGSSYFYGTFSELQNLQPDFSSKLGPSAQLKKKLQALKKKNAQLKWKLQALKKKLAQ | soluble
SLVNMNVPDMILYNGKITTLDPSQPEVSAIAITDGLITAVGGDELLNSATEKTKKIDLKRKRAIPGLNDSHIHVIRGGLHYNMELRWEGVPSITIALEMLKEQARRTPAPQWVRVVGGWSEFQFKERRMPTLEEINAVSEDTPVFVLHLYDRALVNRAGLRALGYTKDTPDPPGCLIERDKRGNPTGLLIANPNASILYSSLGKAPILNFDDQINSTRHFMRELNRLGITSAIDAGGGFQNYPDDYRVVEHLAEKEQLTLRIAYNLFTQNPNHEYEDFASWAKIVSPGQGNDKYKMNGAGEMLVFSAADFEKFQMPRPELATMMEADLKKVISLLVENRWPFRLHATYDESITRFLNVFEEVNKEIPFNGLRWWFDHAETISDRSMERVKALNGGIAIQDRMAFQGEYFVDLYGKEAAKRTPPIYRMLDLGIPVGAGSDATRVSSYNPWVALYWMVAGKTIGGLSIYDEKNKLDRKVALELYSKGSAWFSGDEGKKGTLAVGQFADIAVLSADYFTVPEEEIKDLESLLTIMGGQVVYGNDEFKNLSPELPPASPDWSPTGVYGYGGANLAHTILSHDSHDNKLHSCSNPLHQHTHTVIGKDGTKWGIGCTCFAF | soluble
SLVTVSDVKQYHFCKAIPWINYVMGYREPSTFSMEEGKKISYEEVVKSLNLTTPVKYEVCLSYNGLSGCIDILAGDRKYTVVEVKAFKRGNFSHFRYQLLAYAYLVRKRLGIVERAILVMEGKKVLEIEPTEEHYRYIENVVKKIEEIVNSEKLPAVNVEKCDFCQYRRICPVSVWS | not soluble
SLWYYLFKYIFMGPLFTLLGRPKVEGLEYIPSSGPAILASNHLAVADSFYLPLVVRRRIWFLAKSEYFTGTGLKGWINRWFYSVSGQVPIDRTNADSAQGALQTAVVLLGQGKLLGMYPEGTRSPDGRLYKGKTGLARLALHTGVPVIPVAMIGTNVVNPPGRKMLRFGRVTVRFGKPMDFSRFEGLAGNHFIERAVTDEVIYELMGLSGQEYVDIYAASVKDGRNAGGAGANPNSTDAARIPETAAEG | not soluble
SLYATPIGYADTRFETAADAPRQGVETPYAANVQVYESFRGGLVGLEPDDRVVVVWWADDADRDVLAVRDGDRGVFTTRSPARPNPVCITPCELLAVDAADGTLAIRGWIWRTARRSWI | soluble
SMCEKVISVGQTVITKHRNTRYYSCRVMAVTSQTFYEVMFDDGSFSRDTFPEDIVSRDCLKLGPPAEGEVVQVKWPDGKLYGAKYFGSNIAHMYQVEFEDGSQIAMKREDIYTLDEELPKRVK | soluble
SMKAIVVINLVKINKKIIPDKIYVYRLFNDPEEELQKEGYSIYRLAYENVGIVIDPENLIIATTKELEYEGEFIPEGEISFSELRNDYQSKLVLRLLKENGIGEYELSKLLRKFRKPKTFGDYKVIPSVEMSVIKHDEDFYLVIHIIHQIQSMKTLWELVNKDPKELEEFLMTHKENLMLKDIASPLKTVYKPCFEEYTKKPKLDHNQEIVKYWYNYHIERYWNTPEAKLEFYRKFGQVDLKQPAILAKFASKIKKNKNYKIYLLPQLVVPTYNAEQLESDVAKEILEYTKLMPEERKELLENILAEVDSDIIDKSLSEIEVEKIAQELENKIRVRDDKGNSVPISQLNVQKSQLLLWTNYSRKYPVILPYEVPEKFRKIREIPMFIILDSGLLADIQNFATNEFRELVKSMYYSLAKKYNSLAKKARSTNEIGLPFLDFRGKEKVITEDLNSDKGIIEVVEQVSSFMKGKELGLAFIAARNKLSSEKFEEIKRRLFNLNVISQVVNEDTLKNKRDKYDRNRLDLFVRHNLLFQVLSKLGVKYYVLDYRFNYDYIIGIDVAPMKRSEGYIGGSAVMFDSQGYIRKIVPIKIGEQRGESVDMNEFFKEMVDKFKEFNIKLDNKKILLLRDGRITNNEEEGLKYISEMFDIEVVTMDVIKNHPVRAFANMKMYFNLGGAIYLIPHKLKQAKGTPIPIKLAKKRIIKNGKVEKQSITRQDVLDIFILTRLNYGSISADMRLPAPVHYAHKFANAIRNEWKIKEEFLAEGFLYFV | soluble
SMPDEVPLDEQCERLPYDASKWEFARERLKLGKSLGRGAFGKVVQASAFGIKKSPTCRTVAVKMLKEGATASEYKALMTELKILTHIGHHLNVVNLLGACTKQGGPLMVIVEYCKYGNLSNYLKSKRDLFFLNKDAALHMEPKKEKMEPGLEQGKKPRLDSVTSSESFASSGFQEDKSLSDVEEEEDSDGFYKEPITMEDLISYSFQVARGMEFLSSRKCIHRDLAARNILLSENNVVKICDFGLARDIYKNPDYVRKGDTRLPLKWMAPESIFDKIYSTKSDVWSYGVLLWEIFSLGGSPYPGVQMDEDFCSRLREGMRMRAPEYSTPEIYQIMLDCWHRDPKERPRFAELVEKLGDLL | soluble
SMPVRRVRVVKQEAGGLGISIKGGRENRMPILISKIFPGLAADQSRALRLGDAILSVNGTDLRQATHDQAVQALKRAGKEVLLEVKFIREVNTVV | soluble
SMQPPIAKPGETWILQAKRSDEFNVKDATKWNFQTENYGVWSWKNENATVSKGKLKLTTKRESHQRTFWDGCNQQQVANYPLYYTSGVAKSRATGNYGYYEARIKGASTFPGVSPAFWMYSTIDRSLTKEGDVQYSEIDVVELTQKSAVRESDHDLHNIVVKNGKPTWMRPGSFPQTNHNGYHLPFDPRNDFHTYGVNVTKDKITWYVDGEIVGEKDNLYWHRQMNLTLSQGLRAPHTQWKCNQFYPSANKSAEGFPTSMEVDYVRTWVKV | soluble
SMRSGSSMKEEPLGSGMNAVRTWMQGAGVLDANTAAQSGVGLARAHFEKQPPSNLRKSNFFHFVLALYDRQGQPVEIERTAFVGFVEKEKEANSEKTNNGIHYRLQLLYSNGIRTEQDFYVRLIDSMTKQAIVYEGQDKNPEMCRVLLTHEIMCSRCCDKKSCGNRNETPSDPVIIDRFFLKFFLKCNQNCLKNAGNPRDMRRFQVVVSTTVNVDGHVLAVSDNMFVHNNSKHGRRARRLDPS | soluble
SMSDESVYKVLLLGAPGVGKSALARIFGGVEDGPEAEAAGHTYDRSIVVDGEEASLMVYDIWEQDGGRWLPGHCMAMGDAYVIVYSVTDKGSFEKASELRVQLRRARQTDDVPIILVGNKSDLVRSREVSVDEGRACAVVFDCKFIETSAALHHNVQALFEGVVRQIRLRRDSKEA | soluble
SMSEATPCIKAISPSEGWTTGGATVIIIGDNFFDGLQVVFGTMLVWSELITPHAIRVQTPPRHIPGVVEVTLSYKSKQFCKGAPGRFVYTALNEPTIDYGFQRLQKVIPRHPGDPERLPKEVLLKRAADLVEALYGMPHNNQEIILKRAADIAEALYSV | soluble
SNADDYTAGKEYVELSSPVPVSQPGKIEVVELFWYGCPHCYAFEPTIVPWSEKLPADVHFVRLPALFGGIWNVHGQMFLTLESMGVEHDVHNAVFEAIHKEHKKLATPEEMADFLAGKGVDKEKFLSTYNSFAIKGQMEKAKKLAMAYQVTGVPTMVVNGKYRFDIGSAGGPEETLKLADYLIEKERAAAKK | soluble
SNAEELIEIREARMDDLDTIAKFNYNLAKETEGKELDMDVLTKGVKALLLDERKGKYHVYTVFDKVVAQIMYTYEWSDWRNGNFLWIQSVYVDKEYRRKGIFNYLFNYIKNICDKDENIVGMRLYVEKENINAKATYESLNMYECDYNMYEYEVIHS | soluble
SNAMAKNKLLRMDNVSIVVESLDNAISFFEEIGLNLEGRANVEGEWAGRVTGLGSQCVEIAMMVTPDGHSRIELSRFLTPPTIADHRTAPVNALGYLRVMFTVEDIDEMVSRLTKHGAELVGEVVQYENSYRLCYIRGVEGILIGLAEELGNK | soluble
SNAMANIKIRQETPTAFYIKVHDTDNVAIIVNDNGLKAGTRFPDGLELIEHIPQGHKVALLDIPANGEIIRYGEVIGYAVRAIPRGSWIDESMVVLPEA | soluble
SNAMATKLVIAIVQDKDANYLSDQFIDQNVRATKLSTTGGFLQSGNTTFMIGIEEERVPEVLEIIKKASHTREEFMTPSVNMDVNMEGTTAYPIKVQVGGATVLVLPVDQFERF | soluble
SNAMKILLIGASGTLGSAVKERLEKKAEVITAGRHSGDVTVDITNIDSIKKMYEQVGKVDAIVSATGSATFSPLTELTPEKNAVTISSKLGGQINLVLLGIDSLNDKGSFTLTTGIMMEDPIVQGASAAMANGAVTAFAKSAAIEMPRGIRINTVSPNVLEESWDKLEPFFEGFLPVPAAKVARAFEKSVFGAQTGESYQVY | soluble
SNAMKMSELEKMLKGEHFDGASAEIEALRSQAGRLKLEINQSLDEAERYALQRELFGHLGHKSCVQPPFHCEFGKTIRIGDHTFINMNVVMLDGAPITIGDHVLIGPSTQFYTASHSLDYRRRQAWETICKPIVIEDDVWIGGNVVINQGVTIGARSVVAANSVVNQDVPPDTLVGGTPARILRSLKDPAESMAE | soluble
